This is an account of results in patent publication US10058586B2, “Use of human small leucine zipper protein in adipocyte differentiation procedure” (Korea University Research and Business Foundation, priority 2013, dated 2018).

In experiment [1] the test system is CREB element in the FABP4 enhancer. The experiment can be described thus: Chromatin immunoprecipitation (ChIP) with HA-sLZIP in C3H10T1/2 cells. The format is cell-based. The conditions noted are these: RZD treated or not. As for the experimental part:
C3H10T1/2 cells grown in a 100-mm culture dish were infected with adenovirus HA-sLZIP. After the infection, the cells remained in a growth medium until the cells reaches 100% confluence, and the medium was exchanged with a differentiation medium. The cells were washed with 1×PBS, the medium was treated with 1% formaldehyde for 10 minutes at room temperature, and then glycine was added for 5 minutes at a final concentration of 0.125 M. The cells were strapped with PBS, and centrifuged at 1000×g for 5 minutes at 4° C. ChIP analysis was performed such that anti-HA antibodies and anti-rabbit IgG serving as an internal control group were used and precipitated together with a DNA-protein complex. An enhancer region of FABP4 including a functional CREs was amplified from the prepared DNA.
A DNA binding ability of sLZIP with various elements in the FABP4 enhancer region was examined. For this purpose, recombinant His-sLZIP fusion proteins (3 μg) were incubated with γ-^32P-labeled oligonucleotide probes containing expected CREB binding elements (FIG. 7B). The γ-^32P-labeled oligonucleotide probes were incubated while an amount of purified His-sLZIPs was increased. For competition analysis, unlabeled CREB oligonucleotide probes of 100-fold excess were used and His antibodies were added to a reaction mixture on ice for additional 40 minutes (FIG. 7C). […]

Another experiment has as its system HDAC3. The experiment can be described thus: GST pull-down of GST-HDAC3 and Flag-sLZIP in 293T cells. It is filed as binding. The method, then: 293T cells were obtained and washed with cold PBS. The cells were re-suspended in an IP lysis buffer [25 mM of Tris-HCl (pH 7.4), 150 mM of NaCl, 1 mM of EDTA, 1% NP-40 and 5% glycerol, and a protease inhibitor]. A suspension was centrifuged at 16,000×g for 20 minutes at 4° C. Supernatants were collected and incubated with 0.5 μg of appropriate antibodies and 25 μl of protein A/G-agarose or a GST Sepharose 4B bead for 24 hours at 4° C. A protein complex was centrifuged at 1,000×g with a cold IP lysis buffer for 1 minute and washed five times. The final pellet was re-suspended in 50 μl of an SDS-sample buffer containing 5% β-mercaptoethanol and heated for 10 minutes at 100° C. […] Co-precipitated proteins were detected according to western blotting using specific antibodies.
For this purpose, 293T cells were transiently transfected with PPARγ2 (0.5 μg), (3-galactosidase (0.1 μg), FABP4-Luc reporter genes (0.2 μg) and sLZIP (0.1 μg). After the transfection, the cells were stimulated with or without 10 nM of RZD and 10 nM of TSA (FIG. 4A). A promoter activity was measured according to luciferase analysis. In the 293T cells, FABP4-Luc reporter genes, sLZIP, PPAR, β-galactosidase, and 100 nM of si-RNAs and HDAC1, 2, 3 and 8 for a control group were expressed. After the transfection, the cells were stimulated with or without 10 nM of RZD, and a promoter activity was measured (FIG. 4B). […]

B1: sLZIP: human small leucine-zipper protein, isoform of LZIP, 354 amino acids, no transmembrane domain; GenBank FJ263669, SEQ ID NO: 1 (protein, listed as Homo sapiens)
chain: MELELDAGDQDLLAFLLEESGDLGTAPDEAVRAPLDWALPLSEVPSDWEVDDLLCSLLSPPASLNILSSSNPCLVHHDHTYSLPRETVSMDLESESCRKEGTQMTPQHMEELAEQEIARLVLTDEEKSLLEKEGLILPETLPLTKTEEQILKRVRRKIRNKRSAQESRRKKKVYVGGLESRVLKYTAQNMELQNKVQLLEEQNLSLLDQLRKLQAMVIEISNKTSSSSMYSSDTRGSLPAEHGVLSRQLRALPSEDPYQLELPALQSEVPKDSTHQWLDGSDCVLQAPGNTSCLLHYMPQAPSAEPPLEWPFPDLFSEPLCRGPILPLQANLTRKGGWLPTGSPSVILQDRYSG
Turning to B1, in experiment [1], the “recruitment to CREB element in the FABP4 enhancer (ChIP)” value is reported as “gathered in the CREB element in the FABP4 enhancer”. Besides, the “interaction with HDAC3 (GST pull-down)” value in the experiment with HDAC3 (10 nM RZD for 24 hours) was “HDAC3 was remained as being interacted with sLZIP”; in the experiment on HDAC3 (no RZD) it was “interacted with HDAC3 in a PPARγ2 corepressor complex”.
